According to article PMC10681739, “High-throughput data and modeling reveal insights into the mechanisms of cooperative DNA-binding by transcription factor proteins”:

B1: Table S2 A row 1319 (dsDNA)
DNA 1: GAGGAACCCAAAGTAGGATGTGGTTTTGCAATTGGA
DNA 2: TCCAATTGCAAAACCACATCCTACTTTGGGTTCCTC
B2: Table S2 A row 1225 (dsDNA)
DNA 1: GCTAGACAGGAAACAGTGAGCTTCTGTGGGCAGGAG
DNA 2: CTCCTGCCCACAGAAGCTCACTGTTTCCTGTCTAGC
B3: Table S2 A row 1719 (dsDNA)
DNA 1: GCCACACTTCCGGCGGGGCTGCGACCGCAGAGGGGC
DNA 2: GCCCCTCTGCGGTCGCAGCCCCGCCGGAAGTGTGGC
B4: Table S2 A row 550 (dsDNA)
DNA 1: AGCAGGTATACCACTTCCTGTGGTTATCATTTGAGG
DNA 2: CCTCAAATGATAACCACAGGAAGTGGTATACCTGCT
B5: Table S2 A row 793 (dsDNA)
DNA 1: GTTCAGCAGGAAGTGGATGTGGATGTGTGGTTGCCA
DNA 2: TGGCAACCACACATCCACATCCACTTCCTGCTGAAC
B6: Table S2 A row 144 (dsDNA)
DNA 1: GCCACACTGGCGGAAATGGTGGTTACTGTTCGAGCC
DNA 2: GGCTCGAACAGTAACCACCATTTCCGCCAGTGTGGC
B7: Table S2 A row 721 (dsDNA)
DNA 1: AGTGCAGAGTGGACAGGATGTGGTGGAGGTGAGAGA
DNA 2: TCTCTCACCTCCACCACATCCTGTCCACTCTGCACT
B8: Table S2 A row 391 (dsDNA)
DNA 1: TGCAAAAAAACAGGAAACACCCAGCCGCAAATTATA
DNA 2: TATAATTTGCGGCTGGGTGTTTCCTGTTTTTTTGCA
B9: Table S2 A row 1276 (dsDNA)
DNA 1: ATTTCGCTGAAAACAGGAAACCACGAAGCCCAGATG
DNA 2: CATCTGGGCTTCGTGGTTTCCTGTTTTCAGCGAAAT
B10: Table S2 A row 316 (dsDNA)
DNA 1: GGCCTGTCACACACAGGAAGCGGTCACAGAAAAGCT
DNA 2: AGCTTTTCTGTGACCGCTTCCTGTGTGTGACAGGCC
B11: Table S2 A row 104 (dsDNA)
DNA 1: TGGGGACCACTGTCAGGATGTGGTCACTGGAGTCAC
DNA 2: GTGACTCCAGTGACCACATCCTGACAGTGGTCCCCA
B12: Table S2 A row 329 (dsDNA)
DNA 1: TCCAGCTCCACAGGATGTGGTGAGTGAAGCAGCAAG
DNA 2: CTTGCTGCTTCACTCACCACATCCTGTGGAGCTGGA
B13: Table S2 A row 132 (dsDNA)
DNA 1: CGTCTAATTGCAGGAAGTGGTTTGAAATGTTAATCT
DNA 2: AGATTAACATTTCAAACCACTTCCTGCAATTAGACG
B14: Table S2 A row 147 (dsDNA)
DNA 1: GCAGTCAGAAGGTGCGGATGCGGTAAGGTATGCGCT
DNA 2: AGCGCATACCTTACCGCATCCGCACCTTCTGACTGC
B15: Table S2 A row 364 (dsDNA)
DNA 1: AATGAAGGAGGGGCAGGATGTGGTCTTGGTGAATCA
DNA 2: TGATTCACCAAGACCACATCCTGCCCCTCCTTCATT
B16: Table S2 A row 123 (dsDNA)
DNA 1: TTTATCATGAATGCAGGATGTGGGCAGACTCACAGC
DNA 2: GCTGTGAGTCTGCCCACATCCTGCATTCATGATAAA
B17: Table S2 A row 1188 (dsDNA)
DNA 1: CCCACTGCGCCAGGATGTGGTCAGGTCGGTGACGTT
DNA 2: AACGTCACCGACCTGACCACATCCTGGCGCAGTGGG
B18: Table S2 A row 1604 (dsDNA)
DNA 1: GGTGTGTTCTGGGGAGGAAGTGGGTTTTCAGGTTGT
DNA 2: ACAACCTGAAAACCCACTTCCTCCCCAGAACACACC
B19: Table S2 A row 1404 (dsDNA)
DNA 1: ATAGACTCAGGAAGTGATTGTGGTAAGATTCTATAT
DNA 2: ATATAGAATCTTACCACAATCACTTCCTGAGTCTAT
B20: Table S2 A row 1336 (dsDNA)
DNA 1: CACCTCGGGGGTTTCCGGTCCGTGGTTAGCTCCTTC
DNA 2: GAAGGAGCTAACCACGGACCGGAAACCCCCGAGGTG
B21: Table S2 A row 1419 (dsDNA)
DNA 1: TTCACTTCCACCACTTCCTGTGGGTTTTGTTCATCC
DNA 2: GGATGAACAAAACCCACAGGAAGTGGTGGAAGTGAA
B22: Table S2 A row 1234 (dsDNA)
DNA 1: GCTGGTATGGCAGGAAGTTTCTCACCACAGTATACT
DNA 2: AGTATACTGTGGTGAGAAACTTCCTGCCATACCAGC
B23: Table S2 A row 1610 (dsDNA)
DNA 1: ACACCTCAGGCAGGATGTGGTAGGGGTTGCCCCAGA
DNA 2: TCTGGGGCAACCCCTACCACATCCTGCCTGAGGTGT
B24: Table S2 A row 719 (dsDNA)
DNA 1: TTGCCATTCCAGGAAATGAGCTTACCACATTGACTG
DNA 2: CAGTCAATGTGGTAAGCTCATTTCCTGGAATGGCAA
B25: Table S2 A row 309 (dsDNA)
DNA 1: CTTAGAGTACCAGGATGTGGTTTGGCCTGGGGGTGG
DNA 2: CCACCCCCAGGCCAAACCACATCCTGGTACTCTAAG
B26: Table S2 A row 911 (dsDNA)
DNA 1: TTACACAACAGGAAACTATGTTTAGCGGTTAATCCA
DNA 2: TGGATTAACCGCTAAACATAGTTTCCTGTTGTGTAA
B27: Table S2 A row 733 (dsDNA)
DNA 1: CAGTGAACAGTTTCCTGTTCCTGTGGTTTTGACTTT
DNA 2: AAAGTCAAAACCACAGGAACAGGAAACTGTTCACTG
B28: Table S2 A row 866 (dsDNA)
DNA 1: CTGAAACAGGAAGCTGAGGGTGCGGTTGGGGGAGGA
DNA 2: TCCTCCCCCAACCGCACCCTCAGCTTCCTGTTTCAG
B29: Table S2 A row 1755 (dsDNA)
DNA 1: CAGAGCCAAACATGCGGAAGTGGTTACGTGTACTAG
DNA 2: CTAGTACACGTAACCACTTCCGCATGTTTGGCTCTG
B30: Table S2 A row 1069 (dsDNA)
DNA 1: AAAGCATTTCCTGCCTTGACTTAACCACAAGACAGG
DNA 2: CCTGTCTTGTGGTTAAGTCAAGGCAGGAAATGCTTT
B31: Table S2 A row 1364 (dsDNA)
DNA 1: CTCAGGGTACCAGGATGTGGTTTAGCTTAGGGGTGG
DNA 2: CCACCCCTAAGCTAAACCACATCCTGGTACCCTGAG
B32: Table S2 A row 601 (dsDNA)
DNA 1: CATTCAGTAAAAGGATGTGGTTTAGAACAGATGAAA
DNA 2: TTTCATCTGTTCTAAACCACATCCTTTTACTGAATG
B33: Table S2 A row 1376 (dsDNA)
DNA 1: CTCTGGCAGGAAGCTCTGAGGGCTAAACCACAAAAA
DNA 2: TTTTTGTGGTTTAGCCCTCAGAGCTTCCTGCCAGAG
B34: Table S2 A row 1530 (dsDNA)
DNA 1: CCAGGCGGAAGCGGCCGGGAGTAGCGCTGCGGTTGG
DNA 2: CCAACCGCAGCGCTACTCCCGGCCGCTTCCGCCTGG
B35: Table S2 A row 990 (dsDNA)
DNA 1: TCCTAAAGCAGGAAATAGTGAGGCTACCGCAGTGTC
DNA 2: GACACTGCGGTAGCCTCACTATTTCCTGCTTTAGGA
B36: Table S2 A row 155 (dsDNA)
DNA 1: GGGACAGACTCTCCAGGATGTGGTTGGATTTTGGGC
DNA 2: GCCCAAAATCCAACCACATCCTGGAGAGTCTGTCCC
B37: Table S2 A row 1358 (dsDNA)
DNA 1: CAGCCTTGCCGGAAGGCAGAGTTTGTGGTCAGACCG
DNA 2: CGGTCTGACCACAAACTCTGCCTTCCGGCAAGGCTG
B38: Table S2 A row 638 (dsDNA)
DNA 1: CAAGGCACCAACGGATGTGGTATCTGGTGAGGGCTT
DNA 2: AAGCCCTCACCAGATACCACATCCGTTGGTGCCTTG
B39: Table S2 A row 1115 (dsDNA)
DNA 1: TCAATGACAGGAAGTTTTTAAACCACATACGGCTAA
DNA 2: TTAGCCGTATGTGGTTTAAAAACTTCCTGTCATTGA
B40: Table S2 A row 1086 (dsDNA)
DNA 1: TTTCTGACACTCTCAGGATGTGGGTTTTCACACTGT
DNA 2: ACAGTGTGAAAACCCACATCCTGAGAGTGTCAGAAA
B41: Table S2 A row 1132 (dsDNA)
DNA 1: GCGCAAAGCCGGAAGGAGGGGTTTGCGGCTGGGGAG
DNA 2: CTCCCCAGCCGCAAACCCCTCCTTCCGGCTTTGCGC
B42: Table S2 A row 186 (dsDNA)
DNA 1: GAAGTGTGCTCTTCCGGTACCTGCGGTTCGTTGCGC
DNA 2: GCGCAACGAACCGCAGGTACCGGAAGAGCACACTTC
B43: Table S2 A row 1241 (dsDNA)
DNA 1: AAGAAAAAGGGAGGATGTGGTTTAGCAAAAGCACTG
DNA 2: CAGTGCTTTTGCTAAACCACATCCTCCCTTTTTCTT
B44: Table S2 A row 1614 (dsDNA)
DNA 1: ACCTCAAGCCCAGGATGTGGTTTGGCCACTATTGAG
DNA 2: CTCAATAGTGGCCAAACCACATCCTGGGCTTGAGGT

Target: ETS1:RUNX1 (Homo sapiens, UniProt P14921;Q01196 full;full)
Sequence (P14921 whole entry, chain 1 of 2): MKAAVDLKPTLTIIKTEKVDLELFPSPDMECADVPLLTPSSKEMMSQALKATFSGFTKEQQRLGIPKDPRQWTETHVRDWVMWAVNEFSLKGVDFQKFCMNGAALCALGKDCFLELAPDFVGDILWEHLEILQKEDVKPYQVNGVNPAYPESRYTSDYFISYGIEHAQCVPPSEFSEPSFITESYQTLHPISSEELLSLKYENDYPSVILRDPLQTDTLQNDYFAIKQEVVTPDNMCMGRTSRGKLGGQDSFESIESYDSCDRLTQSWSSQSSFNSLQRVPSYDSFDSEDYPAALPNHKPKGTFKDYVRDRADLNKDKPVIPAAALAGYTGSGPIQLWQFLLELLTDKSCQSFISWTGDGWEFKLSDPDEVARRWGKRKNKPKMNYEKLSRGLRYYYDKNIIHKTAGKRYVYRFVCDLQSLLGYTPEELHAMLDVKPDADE
Sequence (Q01196 whole entry, chain 2 of 2): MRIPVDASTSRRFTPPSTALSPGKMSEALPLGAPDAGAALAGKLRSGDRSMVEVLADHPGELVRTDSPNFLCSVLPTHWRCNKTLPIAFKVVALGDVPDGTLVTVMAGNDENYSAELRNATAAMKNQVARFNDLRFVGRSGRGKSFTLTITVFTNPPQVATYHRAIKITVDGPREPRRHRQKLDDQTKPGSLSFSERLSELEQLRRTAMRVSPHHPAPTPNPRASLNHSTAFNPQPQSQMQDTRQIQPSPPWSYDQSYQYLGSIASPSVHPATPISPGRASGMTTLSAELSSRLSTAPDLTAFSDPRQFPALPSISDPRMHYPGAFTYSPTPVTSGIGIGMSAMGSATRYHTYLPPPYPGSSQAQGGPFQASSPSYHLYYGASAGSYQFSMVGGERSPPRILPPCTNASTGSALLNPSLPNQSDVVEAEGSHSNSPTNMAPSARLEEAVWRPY
Assay: gcPBM; 1 nM ETS1 + 25 nM RUNX1, anti-ETS1 signal, normalised
Conditions: tags: N-terminal GST (pDEST15), kept (PMC6008103); copies: 1;1; label: surface-attached array probe

| Binder | binding signal |
| --- | --- |
| B1 | 6860 PBM fluorescence, median of replicate spots |
| B2 | 5960 PBM fluorescence, median of replicate spots |
| B3 | 5900 PBM fluorescence, median of replicate spots |
| B4 | 8000 PBM fluorescence, median of replicate spots |
| B5 | 7060 PBM fluorescence, median of replicate spots |
| B6 | 6760 PBM fluorescence, median of replicate spots |
| B7 | 9260 PBM fluorescence, median of replicate spots |
| B8 | 6020 PBM fluorescence, median of replicate spots |
| B9 | 7820 PBM fluorescence, median of replicate spots |
| B10 | 7880 PBM fluorescence, median of replicate spots |
| B11 | 6580 PBM fluorescence, median of replicate spots |
| B12 | 6260 PBM fluorescence, median of replicate spots |
| B13 | 7750 PBM fluorescence, median of replicate spots |
| B14 | 7480 PBM fluorescence, median of replicate spots |
| B15 | 7160 PBM fluorescence, median of replicate spots |
| B16 | 6920 PBM fluorescence, median of replicate spots |
| B17 | 9170 PBM fluorescence, median of replicate spots |
| B18 | 7210 PBM fluorescence, median of replicate spots |
| B19 | 8880 PBM fluorescence, median of replicate spots |
| B20 | 6540 PBM fluorescence, median of replicate spots |
| B21 | 7320 PBM fluorescence, median of replicate spots |
| B22 | 8760 PBM fluorescence, median of replicate spots |

| Binder | binding signal |
| --- | --- |
| B23 | 6800 PBM fluorescence, median of replicate spots |
| B24 | 6220 PBM fluorescence, median of replicate spots |
| B25 | 8550 PBM fluorescence, median of replicate spots |
| B26 | 9030 PBM fluorescence, median of replicate spots |
| B27 | 5690 PBM fluorescence, median of replicate spots |
| B28 | 6680 PBM fluorescence, median of replicate spots |
| B29 | 6770 PBM fluorescence, median of replicate spots |
| B30 | 6290 PBM fluorescence, median of replicate spots |
| B31 | 9440 PBM fluorescence, median of replicate spots |
| B32 | 6340 PBM fluorescence, median of replicate spots |
| B33 | 8390 PBM fluorescence, median of replicate spots |
| B34 | 5640 PBM fluorescence, median of replicate spots |
| B35 | 8320 PBM fluorescence, median of replicate spots |
| B36 | 7450 PBM fluorescence, median of replicate spots |
| B37 | 6650 PBM fluorescence, median of replicate spots |
| B38 | 6740 PBM fluorescence, median of replicate spots |
| B39 | 9230 PBM fluorescence, median of replicate spots |
| B40 | 6500 PBM fluorescence, median of replicate spots |
| B41 | 7650 PBM fluorescence, median of replicate spots |
| B42 | 7140 PBM fluorescence, median of replicate spots |
| B43 | 5810 PBM fluorescence, median of replicate spots |
| B44 | 6100 PBM fluorescence, median of replicate spots |
